From patent US20230201365A1 (BRIGHT PEAK THERAPEUTICS, published 2023) come the findings set out here.

The target of test [1] is T1, Recombinant Human Fc gamma RIIIA/CD16a Protein (human, UniProt P08637 17-208).
T1 construct: Bought recombinant protein; also called hu FcγRIII (CD16a); huFcgRIII
Nature of the test: ELISA, antibody coated at 2.5 ug/ml, soluble Fc gamma receptor titrated, HRP detection; mean EC50. How it is done: (§1) To analyze Fc Receptor gamma binding test molecules were diluted to 2.5 ug/ml in PBS and plates were coated overnight at 4° C. The next day the assay plates were washed four times with 100 ul of wash buffer: PBS+0.02% Tween 20 and blocked with PBS+1% BSA, for one hour at 37° C., with shaking at 600 RPM. The blocked plates were then washed four times with 100 ul wash buffer. Diluted FcRgamma (Reagents listed, below) was freshly diluted in wash buffer. Plates were then incubated with 25 ul of diluted Fc for two hours with shaking at 600 RPMs, then washed with 100 ul wash buffer, four times. The wells were then incubated with 25 ul of either 1:500 diluted streptavidin-Horseradish peroxidase (HRP) for detection of human FcgR or 1:500 diluted Anti-HIS tag antibody-HRP in wash buffer. The HPR detection molecules were incubated in the wells at room temperature for one hour with shaking at 600 RPMs. Plate wells were washed with 100 ul of wash buffer, four times. Plates were detected using the chromogenic HRP substrate 3,3′,5,5;-tetramethylbenzidine (TMB). Samples were read using a spectrophotometer plate reader with OD set to 450 nm. Reagents: Recombinant Mouse Fc gamma RI/CD64 Protein, CF R&D Systems #2074-FC-050; Recombinant Human Fc gamma RI/CD64 Protein, CF R&D Systems #1257-FC-050; Recombinant Mouse Fc gamma RIII/CD16 Protein, CF R&D Systems #1960-FC-050; Recombinant Human Fc gamma RIIA/CD32a (H167) Protein, CF R&D Systems #9595-CD-050; Recombinant Mouse Fc gamma R4/CD16-2 Protein, CF R&D Systems #1974-CD-050; Recombinant Human Fc gamma RIIIA/CD16a Protein, CF R&D Systems #4325-FC-050; Recombinant Human Fc gamma RIIB/CD32b Avi-tag Protein, CF R&D Systems #AVI1875-050; Recombinant Mouse Fc gamma RIIB/CD32b Protein, CF R&D Systems #1460-CD-050; His Tag Horseradish Peroxidase-conjugated Antibody, R&D Systems #MAB050H; Streptavidin-HRP, Sigma #RABHRP3-600 µL.
(In general: ELISA stands for enzyme-linked immunosorbent assay.)

The target in test [2] is T2, Recombinant Mouse Fc gamma RI/CD64 Protein (mouse, UniProt P26151 25-297).
T2 construct: Bought recombinant protein; also called mu FcγRI (CD64); murine CD64
T2 sequence (looked up): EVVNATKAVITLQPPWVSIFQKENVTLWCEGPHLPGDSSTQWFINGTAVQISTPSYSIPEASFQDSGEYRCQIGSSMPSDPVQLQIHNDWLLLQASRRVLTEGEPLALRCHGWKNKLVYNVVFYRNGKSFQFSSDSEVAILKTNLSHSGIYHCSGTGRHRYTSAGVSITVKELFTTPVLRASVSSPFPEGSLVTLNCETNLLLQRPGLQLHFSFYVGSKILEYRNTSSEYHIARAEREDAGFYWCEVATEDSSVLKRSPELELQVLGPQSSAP
The test is described as above. On the procedure: as §1

Test [3] concerns the target T3, Recombinant Human Fc gamma RI/CD64 Protein (human, UniProt P12314 16-288).
T3 construct: Bought recombinant protein; also called hu FcγRI (CD64)
Described as above. How it is done: as §1

Test [4] concerns the target T4, Recombinant Human Fc gamma RIIB/CD32b Avi-tag Protein (human, UniProt P31994 46-217).
T4 construct: Bought recombinant protein with Avi-tag; also called hu FcγRIIb (CD32b); human CD32b
T4 sequence (looked up): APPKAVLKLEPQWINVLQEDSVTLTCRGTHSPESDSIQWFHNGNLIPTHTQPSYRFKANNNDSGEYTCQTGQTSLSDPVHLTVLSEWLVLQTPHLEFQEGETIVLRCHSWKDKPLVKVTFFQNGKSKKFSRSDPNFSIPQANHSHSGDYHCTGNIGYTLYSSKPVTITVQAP
The test is described as above. How it is done:
as §1

The target in test [5] is T5, Recombinant Mouse Fc gamma RIII/CD16 Protein (mouse, UniProt P08508 31-215).
T5 construct: Bought recombinant protein; also called mu FcγRIII (CD16); murine CD16
T5 sequence (looked up): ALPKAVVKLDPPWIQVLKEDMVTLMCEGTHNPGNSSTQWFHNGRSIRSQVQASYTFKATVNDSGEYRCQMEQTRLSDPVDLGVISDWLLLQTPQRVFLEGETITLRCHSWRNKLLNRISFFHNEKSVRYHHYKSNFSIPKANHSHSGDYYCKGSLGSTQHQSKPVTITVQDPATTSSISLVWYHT
The description is as above. On the procedure: as §1

Test [6] deals with T6, Recombinant Human Fc gamma RIIA/CD32a (H167) Protein (human, UniProt P12318 36-218).
T6 construct: Bought recombinant protein; H167 variant as printed; also called hu FcγRIIa (CD32a); human CD32a
T6 sequence (looked up): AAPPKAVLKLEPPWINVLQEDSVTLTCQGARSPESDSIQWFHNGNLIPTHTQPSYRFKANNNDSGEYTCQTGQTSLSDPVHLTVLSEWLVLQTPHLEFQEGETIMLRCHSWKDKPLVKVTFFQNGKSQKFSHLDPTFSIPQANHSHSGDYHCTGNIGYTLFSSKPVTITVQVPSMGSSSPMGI
Described as above. On the procedure:
as §1

For test [7], the target named is T7, recombinant biotinylated CD20 (human) (human, UniProt P11836 1-297, limits assumed, biotinylated (site not stated)).
T7 construct: also called hu CD20; B-lymphocyte antigen CD20
T7 sequence: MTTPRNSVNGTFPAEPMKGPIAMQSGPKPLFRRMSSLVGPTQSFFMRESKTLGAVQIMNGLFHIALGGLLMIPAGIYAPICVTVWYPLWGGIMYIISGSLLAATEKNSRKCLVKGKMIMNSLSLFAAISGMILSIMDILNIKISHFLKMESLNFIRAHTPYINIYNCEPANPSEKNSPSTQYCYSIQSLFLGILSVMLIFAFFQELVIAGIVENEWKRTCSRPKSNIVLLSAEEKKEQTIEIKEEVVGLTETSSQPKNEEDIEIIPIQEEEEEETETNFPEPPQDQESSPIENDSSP
Nature of the test: ELISA, antibody coated on plate, biotinylated recombinant CD20 titrated, streptavidin-HRP detection; mean EC50. On the procedure:
(§2) The interaction of the unmodified and of conjugated anti-CD20 antibodies with CD20 were measured by ELISA assay. […] Plates were washed four times with 100 μl of PBS-0.02% Tween20. and blocked with 25 μl of PBS-0.02% Tween20-1% BSA at 37° C. with shaking at 600 RPM, for 1 h. Plates were then washed four times with 100 μl of PBS-0.02% Tween20. 25 μl of recombinant biotinylated CD20 were added in seven-fold serial dilutions starting at 18 nM down to 10 pM into PBS-0.02% Tween20-0.1% BSA and incubated at 37° C. during 2 h. Plates were then washed four times with 100 μl of PBS-0.02% Tween20. 25 ul of Streptavidin-Horseradish peroxidase (#RABHRP3, Merck, Buchs, Switzerland) diluted at 1:500 into PBS-0.02% Tween20-0.1% BSA were added to each well and incubated at room temperature for 30 min. Plates were then washed four times with 100 μl of PBS-0.02% Tween20. Fifty microliters of TMB substrate reagent (#CL07, Merck, Buchs, Switzerland) were added to each well and incubated at 37° C. during 5min After 5 min at 37° C., Horseradish peroxidase reaction is stopped by adding 50 μl/well of 0.5M H₂SO₄ stop solution. ELISA signal is then measured at 450 nm on an ENSPIRE® plate reader from Perkin Elmer (Schwerzenbach, Switzerland).

In test [8] the target is T7, recombinant biotinylated CD20 (human). Nature of the test: ELISA, antibody coated on the plate, biotinylated CD20 titrated, streptavidin-HRP detection, OD 450 nm. How it is done:
as §2

T1 sequence (P08637 17-208 limits assumed): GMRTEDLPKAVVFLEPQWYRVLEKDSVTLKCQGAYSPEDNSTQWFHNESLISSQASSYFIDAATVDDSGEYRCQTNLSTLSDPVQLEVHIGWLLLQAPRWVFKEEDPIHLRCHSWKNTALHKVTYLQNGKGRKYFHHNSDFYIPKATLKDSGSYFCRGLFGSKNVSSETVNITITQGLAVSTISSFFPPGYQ
T3 sequence (P12314 16-288 limits assumed): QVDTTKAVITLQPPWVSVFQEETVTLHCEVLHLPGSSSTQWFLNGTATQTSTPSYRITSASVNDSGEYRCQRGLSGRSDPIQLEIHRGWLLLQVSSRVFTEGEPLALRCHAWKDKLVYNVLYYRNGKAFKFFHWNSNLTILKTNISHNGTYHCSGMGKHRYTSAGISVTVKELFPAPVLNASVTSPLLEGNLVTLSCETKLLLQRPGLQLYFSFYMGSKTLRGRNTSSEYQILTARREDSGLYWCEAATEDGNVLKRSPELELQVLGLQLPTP

B1: biosimilar Rituximab (unconjugated parent anti-CD20 antibody) (antibody, human IgG1, kappa)
heavy: not shown
light: QIVLSQSPAILSASPGEKVTMTCRASSSVSYIHWFQQKPGSSPKPWIYATSNLASGVPVRFSGSGSGTSYSLTISRVEAEDAATYYCQQWTSNPPTFGGGTKLEIKRTVAAPSVFIFPPSDEQLKSGTASVVCLLNNFYPREAKVQWKVDNALQSGNSQESVTEQDSKDSTYSLSSTLTLSKADYEKHKVYACEVTHQGLSSPVTKSFNRGEC
notes: The antibody tested is a biosimilar of rituximab; also called aCD20 AB; parent antibody
As to B1, the EC50 (as a rule, the concentration needed to bring the measured effect to its halfway point) is 185 nM in test [1]; 35 nM in test [2]; 0.23 nM in test [3]; 880 nM in test [4]; 133 nM in test [5]; 740 nM in test [6]. Also, the EC50 in test [7] is 0.08 nM. Besides, the EC50 (read off the curve) – broadly, the concentration giving half of the maximal effect – in test [8] is approximately 0.04 nM.
